T1: NFKB2 (p52) homodimer (UniProt Q00653 Q00653:1-454)
T1 sequence: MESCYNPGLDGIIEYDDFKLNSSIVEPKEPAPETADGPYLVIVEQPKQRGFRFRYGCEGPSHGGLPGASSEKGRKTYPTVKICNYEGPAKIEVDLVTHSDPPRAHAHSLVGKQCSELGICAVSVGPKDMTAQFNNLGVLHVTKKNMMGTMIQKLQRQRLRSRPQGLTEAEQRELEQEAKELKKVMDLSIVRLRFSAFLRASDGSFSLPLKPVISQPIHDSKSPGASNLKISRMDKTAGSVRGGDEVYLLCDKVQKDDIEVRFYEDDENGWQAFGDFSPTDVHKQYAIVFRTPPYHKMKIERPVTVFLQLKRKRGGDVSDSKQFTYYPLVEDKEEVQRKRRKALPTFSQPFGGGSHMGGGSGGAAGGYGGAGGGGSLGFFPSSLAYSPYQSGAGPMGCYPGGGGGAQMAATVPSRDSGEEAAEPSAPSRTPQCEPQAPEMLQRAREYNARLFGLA

B1: P-selectin 4632-4672 (dsDNA)
DNA 1: CATCTTCCATGGAAGGGGGTGACCCCTTGCCTCTTGGCAAC
DNA 2: GTTGCCAAGAGGCAAGGGGTCACCCCCTTCCATGGAAGATG
B2: P-selectin 4642-4664 (dsDNA)
DNA 1: GGAAGGGGGTGACCCCTTGCCTC
DNA 2: GAGGCAAGGGGTCACCCCCTTCC
B3: P-selectin 4642-4664 ATAG mutant (dsDNA)
DNA 1: GGAAGGGGGTGAATAGTTGCCTC
DNA 2: GAGGCAACTATTCACCCCCTTCC
modifications: [none]

Experiments:
Rel A homodimer = Rel A homodimer (UniProt Q04206 Q04206:1-551); assay: EMSA; conditions: chain copies: 2 (stated); label: 32P
Sequence of Rel A homodimer (Q04206 whole entry, one chain of several): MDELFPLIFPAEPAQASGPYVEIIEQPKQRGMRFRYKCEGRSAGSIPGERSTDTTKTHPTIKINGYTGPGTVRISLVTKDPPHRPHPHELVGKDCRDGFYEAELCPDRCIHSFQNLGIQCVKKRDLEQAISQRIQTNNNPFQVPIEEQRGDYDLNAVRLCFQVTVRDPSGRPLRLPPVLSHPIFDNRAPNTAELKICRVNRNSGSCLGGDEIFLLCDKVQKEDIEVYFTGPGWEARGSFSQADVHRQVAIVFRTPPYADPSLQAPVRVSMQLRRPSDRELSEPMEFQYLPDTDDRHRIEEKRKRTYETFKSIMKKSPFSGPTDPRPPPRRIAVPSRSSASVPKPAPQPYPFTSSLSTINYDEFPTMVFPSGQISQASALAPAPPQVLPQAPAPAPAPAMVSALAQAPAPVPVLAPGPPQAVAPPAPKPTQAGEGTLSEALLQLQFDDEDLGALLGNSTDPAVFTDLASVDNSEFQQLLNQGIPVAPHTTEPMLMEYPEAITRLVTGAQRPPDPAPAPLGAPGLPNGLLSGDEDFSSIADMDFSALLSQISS

NFKB1 (p50) homodimer [1] = biological target: T2, NFKB1 (p50) homodimer (UniProt P19838 P19838:1-433); assay: EMSA; labeled oligonucleotides bound; conditions: chain copies: 2 (stated); label: 32P
T2 sequence (P19838 1-433, one chain of several): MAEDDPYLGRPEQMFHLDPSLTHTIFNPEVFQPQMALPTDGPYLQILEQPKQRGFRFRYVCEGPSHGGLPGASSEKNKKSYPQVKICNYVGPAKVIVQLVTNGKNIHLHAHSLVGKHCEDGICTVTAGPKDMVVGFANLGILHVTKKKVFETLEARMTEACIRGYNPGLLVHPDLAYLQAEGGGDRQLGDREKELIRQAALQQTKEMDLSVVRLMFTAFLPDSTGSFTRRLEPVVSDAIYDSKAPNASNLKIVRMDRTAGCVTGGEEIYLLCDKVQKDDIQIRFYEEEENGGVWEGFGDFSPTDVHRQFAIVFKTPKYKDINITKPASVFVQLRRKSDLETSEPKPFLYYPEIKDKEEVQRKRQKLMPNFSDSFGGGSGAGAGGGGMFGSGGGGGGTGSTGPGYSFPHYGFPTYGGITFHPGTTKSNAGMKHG

NFKB2 (p52) homodimer [2] = biological target: T1, NFKB2 (p52) homodimer; assay: EMSA; labeled oligonucleotides bound; conditions: chain copies: 2 (stated); label: 32P
NFKB1 (p50) homodimer [3] = biological target: T2, NFKB1 (p50) homodimer; assay: EMSA; methylation interference shows contacts to GGGG on both strands; conditions: chain copies: 2 (stated); label: 32P
NFKB2 (p52) homodimer [4] = biological target: T1, NFKB2 (p52) homodimer; assay: as above; conditions: chain copies: 2 (stated); label: 32P
NFKB1 (p50) homodimer [5] = biological target: T2, NFKB1 (p50) homodimer; assay: EMSA; conditions: chain copies: 2 (stated)
NFKB2 (p52) homodimer [6] = biological target: T1, NFKB2 (p52) homodimer; assay: EMSA; conditions: chain copies: 2 (stated)

Row | Binder | binding result (Rel A homodimer) | binding result (NFKB1 (p50) homodimer [1]) | binding result (NFKB2 (p52) homodimer [2]) | binding result (NFKB1 (p50) homodimer [3]) | binding result (NFKB2 (p52) homodimer [4]) | binding result (NFKB1 (p50) homodimer [5]) | binding result (NFKB2 (p52) homodimer [6])
1 | B1 | no binding | binds | binds | – | – | – | –
2 | B2 | no binding | – | – | binds | binds | – | –
3 | B3 | – | – | – | – | – | no binding | no binding

Reference: patent US5605821, “Expression control sequences of the P-selectin gene” (Board of Regents of the University of Oklahoma)
